This assay concerns the target F-type ATP synthase from bovine heart mitochondria (Bos taurus (bovine)). In words: native gel or EMSA. For orientation: In EMSA bound probe runs differently from free probe, usually more slowly.

Several values for one entry are separate records, joined by “and”; a condition that tells them apart may be missing. Equal values may be shown once.

Consider “F-type ATP synthase from bovine heart mitochondria (complex)”, for which the stoichiometry N – broadly, a count of units in the complex or per binding partner – is 2 and 4.

The values are drawn from doi:10.1101/2022.09.21.508839.
